In the nanobody polyreactivity screen of Harvey et al. (2022):

test: yeast display, Sf9 membrane polyspecificity reagent, FACS + sequencing; frameworks hold sequencing errors
Method in brief: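 A nanobody's polyreactivity label depends on the gate it was sorted from. Yeast display cells were stained with 10% biotinylated, detergent-solubilized Sf9 membrane reagent for 1 hour at 4 °C, enriched on streptavidin microbeads and sorted by FACS. The low and high (top ~1%) gates were set on anti-HA fluorescence for expression and streptavidin fluorescence for reagent binding.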

Sequence	polyreactivity (PSR sort gate)
QDQLVESGGGLLQAGGSLRLSCAASGRNFVRNAMGWYRQAPGKEWELVAAISWSSGGTYYADSVKGRFTISRDNAKYTVYLQMNSLKPEDNSVYYCNARGWTLGADFGYWGQGTQVTVSS	low polyreactivity
QDQLVESGGGLLQAGGSLRLSCAASGYTFPIYAMGWYRQAPGKERELVAGISKNGGSTYYADSVKGRFTISRDNAKNTVYLQMNSLKPEDTEVYYCNASAWGRPYYRGSYFVFPGYEYWGQGTQVTVSS	low polyreactivity
QDQLVESGGGLVPAGGSLRLSCAASGGILPQYAMGWYRQAPGKERELVAAITRGGARTYYADSVKGRFTISRDNAKNTVYLQMTSLKPEDTAVYYCAARGPGYQLYDYWGQGTQVTVSS	high polyreactivity
QDQLVESGGGLVQAGASLRLSCAASGNIFANAMGWYRQAPGKQRELVAAISRSGGRTYYADSVKGRFTISRDNANNTVYLQMKSLIPEDTAVSYCNKAAYNYYLYGYWGQGTQVTVSS	high polyreactivity
QDQLVESGGGLVQAGASLRLSCAASGRISYYYTMGWYRQAPGKERELVAAISWSGGTTYYADSVKGRFTISRDNAKNTVYLQMNSLKPDDTAVYYCAAREYYTDVHGTRRYDYWGQGTQVTVSS	low polyreactivity
QDQLVESGGGLVQAGCSLRISCAASGRTFGVYAMGWYRQAPGKERELVAAINRSGTRTYYADSVKGRFTISRDHAKNTVYLPMNSLKPEDTAVYYCAASWYPGSRNYDYWGQGTQVTVSS	high polyreactivity
QDQLVESGGGLVQAGCSLRLSCAASGRIFSWYTMGWYRPAPGKERELVAVITSGGTTKYADSVKGRITISRDNAKNTVYLQMNSLKPEDTAVYYCNVAGRDYAVRWGSFDYWGQGTQVTVSS	low polyreactivity
QDQLVESGGGLVQAGGILRLSCAASGITFSYYTMGWYSQAPGKERELVAGITRSGSTYYADSVKGRFTISRDNAKNTVYLQMNSLKPEDTAVYYCAAEIYAFSGLYYYCGQGTQVTVSS	high polyreactivity
QDQLVESGGGLVQAGGRLRLSCAASGSIFVRNFMGWYRQAPGKERELVPAISWNGGSTFYADSVKWRFTISRDNAKNTVYLQMNSLKPEETAVYYCATRYGRHGWFYLYDYWGQGTQVTVSS	low polyreactivity
QDQLVESGGGLVQAGGSLLLSCAASGGIFRFKAMGWYRQARGKERELVAAIIRGGSTYYADSVKGRFTISRDNAKNTVYLQMISLKPEDTAVYDCAADYEYRTKTRDGYYCGQGTQVTVSS	low polyreactivity
QDQLVESGGGLVQAGGSLPLSCAASGLTFDYYVMGGYRQAPGKERELVATISWSGDITYYADSVKGRFTISRDNAKNTVYLQMNSLKPEDTAVYYCAADPYSWREGGYWGQGTQVTVSS	low polyreactivity
QDQLVESGGGLVQAGGSLRFSCAASGRIFTYYTMGWYRQAPGKERELVARITFSAGRTYYADSVKGRFTISRDNAKNTVYLQMNSLKPEDTAVYYCAARSYHYRNYYWGQGTQVTVSS	high polyreactivity
QDQLVESGGGLVQAGGSLRIICAASGSIVVTNAMGWYRQAPGKVRELVAAMSGRADSTYADSVKGRFTISRDNAKNTVYLQMNSLKPEDTAVDYCAAKVRGWHYYYCGQGTQVTVSS	low polyreactivity
QDQLVESGGGLVQAGGSLRISCAASGRIFYYYGMGWYRQAPGKEWELVAAITSDGDTNYADSVKGRLTISRDNAKNTVYLQMNSLKPADTAVYYCAGKWDWGYWRGFQYGFNYWGQGTQVTVSS	low polyreactivity
QDQLVESGGGLVQAGGSLRLICAASGRIFGVNAMGWYRQAPGKERELVAVISSGGSTYYADSVKGRFTISRDNAKNTVYLQMNSLKPEDTAVYYCAAEIYFFVSYDYWGQGTQVTVSS	low polyreactivity
QDQLVESGGGLVQAGGSLRLICAASGRIFVYYAMGWYRQAPGKERVLVATISSGGSTYYADSVKGRFTISRDNAKNTVYLQMNSLKPEDTAVYYCAADTDNRDLAYYYKGDYWGQGTQVTVSS	low polyreactivity
QDQLVESGGGLVQAGGSLRLICAASGRILTSYAMGWYRQAPGKERELVAAISGSSASTYYADSVKGRFTISRDNAKNTVYLQMNSLKPEDTAVYYCAAYKYDYRVDTGYDYWGQGTQVTVSS	low polyreactivity
QDQLVESGGGLVQAGGSLRLICAASGRSLIHYAMGWYRQAPGKERELVASMTYSGGSTYYADSVKGRFTISRDNAKMTVYLQMNSLKPEDTAVYYCAATLGNRWFHYNYWGQGTQVTVSS	low polyreactivity
QDQLVESGGGLVQAGGSLRLICAASGRTFTFYAMGWSRQAPGKERELVAAIRRGGSTNYADSVKGRFTISRDNAKNTVYLQMNSLKPEDTAVYYCNKRVWYPYWTLDYWGQGTQVTVSS	low polyreactivity
QDQLVESGGGLVQAGGSLRLICAASGRTFYQYVMGWYRQAPGKERELVAAIRSGGNTYYADSVKGRFTISRDNAKNTVYLQMNSLKPEDTAVYYCAVQRGYYRYRLGRYGYDYWGQGTQVTVSS	high polyreactivity
QDQLVESGGGLVQAGGSLRLICAASGSIFEPYVMGWYRQAPGKERELVAAIRQTGGSTYYADSVKGRFTISRDNAKNTVYLQMNSLKPEDTAVYYCNAEQNPSGLYDYRGVEGEMGYWGQGTQVTVSS	low polyreactivity
QDQLVESGGGLVQAGGSLRLICAASGSTLPRYTMGWYRQAPGKERELVAAISFSGSSTYYADSVKGRFTISRDNAKNTVYLQMNSLKPEDTAVYYCRYGYNYWGQGTQVTVSS	high polyreactivity
QDQLVESGGGLVQAGGSLRLRCADYGSTFYYYAMGWYRQAPGKERELVAVITRGGGTYYADSVKGRFTISRDNAKNTVYLQMNSLKPEDTAVYYCNARQRSSTRKGYNYWGQGTEVTVSS	high polyreactivity
QDQLVESGGGLVQAGGSLRLSCAASAFIFSSYAMGWYRQAPGKERELVAAITVRAGRTYYADSVKGRFTISRDNAKYTVYLEMNSLKPEDSAVYYCAADSGLWGYYYWGQGTQVTVSS	high polyreactivity
QDQLVESGGGLVQAGGSLRLSCAASGFIFALYAMGWYRQAPGKERELVAAINWSGGRTYYADSVKGRFTISRDNAKNTVYLQMNSLKPEDTAVYYCNRRAFSPYAANYYYWGQGTQVTVSS	high polyreactivity
QDQLVESGGGLVQAGGSLRLSCAASGFIFPIYAMGWYRQAPGKERELVAGISGSGTSTYYADSVKGRFTISRDNAKNTVYFLMNSLKPEDTAVYYCNILWRGAARTRWDRGYWGLGTQVTVSS	high polyreactivity
QDQLVESGGGLVQAGGSLRLSCAASGFIFWFYAMGWYRQAPGKERELVASISARGARTYYADSVKGRFTISRDNAKNTVYLQMNSLKPEDTAVYYCATTSPVWWRADDYWGQGTQVTVSS	high polyreactivity
QDQLVESGGGLVQAGGSLRLSCAASGFILKPNAMGWYRQAPGKERELVAAISWSSGSPDYADSVKGRFTISRDNAKNTVYLQMNSLKPEDTAVYYCAADYFVYPDDWYDYWGQGTQVTVSS	low polyreactivity
QDQLVESGGGLVQAGGSLRLSCAASGFTFFPYAMGWYRQAPGKERELVAGINDGGSTNYADSVKGRFTISRDNAKNTVYLQLNSLKPEDTAVYYCNADTPLSGGSSMGYWGQGTQVTVSS	low polyreactivity
QDQLVESGGGLVQAGGSLRLSCAASGFTFGSYAMGWYRQAPGKERELVAAISSNGGNTYYADSVKGRFTISRDNAKNTVYLQMNSLKPEDTAVYYCAARYPSGTRKWYGYWGQGTQVTVSS	high polyreactivity
